Target: SARS-CoV-2 spike on pseudotyped virus particles (Wuhan-Hu-1 strain) (SARS-CoV-2) (UniProt P0DTC2)
Test: cell-based or functional assay

homotrimeric Nb21
IC50, pseudovirus luciferase assay: 1.3 pM

homotrimeric Nb20
IC50, pseudovirus luciferase assay: 3 pM

Reference: patent US20250002563A1
